Kd data for 18 molecules are collected here from US20260070987A1.

Substitutions are numbered along the chain they refer to. Names may count otherwise.

B1: equine IgG7 T286A mutant (antibody, part only; not given: variable domains, not shown: another chain or arm of the molecule)
constant: ASTTAPKVFPLASHSAATSGSTVALGCLVSSYFPEPVTVSWNSGALTSGVHTFPSVLQSSGLYSLSSMVTVPASSLKSQTYICNVAHPASSTKVDKKIVIKECGGCPTCPECLSVGPSVFIFPPKPKDVLMISRTPTVTCVVVDVGHDFPDVQFNWYVDGVETHAATTEPKQEQNNSTYRVVSILAIQHKDWLSGKEFKCKVNNQALPAPVQKTISKPTGQPREPQVYVLAPHRDELSKNKVSVTCLVKDFYPTDIDIEWKSNGQPEPETKYSTTPAQLDSDGSYFLYSKLTVETNRWQQGTTFTCAVMHEALHNHYTEKSVSKSPGK
B2: equine IgG7 T286G mutant (antibody, part only; not given: variable domains, not shown: another chain or arm of the molecule)
constant: B1 constant with A165G
B3: equine IgG7 T286C mutant (antibody, part only; not given: variable domains, not shown: another chain or arm of the molecule)
constant: B1 constant with A165C
B4: equine IgG7 T286K mutant (antibody, part only; not given: variable domains, not shown: another chain or arm of the molecule)
constant: B1 constant with A165K
B5: equine IgG7 T286P mutant (antibody, part only; not given: variable domains, not shown: another chain or arm of the molecule)
constant: B1 constant with A165P
B6: equine IgG7 T286D mutant (antibody, part only; not given: Variable domains, not shown: another chain or arm of the molecule)
constant: B1 constant with A165D
B7: equine IgG7 T286S mutant (antibody, part only; not given: variable domains, not shown: another chain or arm of the molecule)
constant: B1 constant with A165S
B8: equine IgG7 T286L mutant (antibody, part only; not given: Variable domains, not shown: another chain or arm of the molecule)
constant: B1 constant with A165L
B9: equine IgG7 T286E mutant (antibody, part only; not given: variable domains, not shown: another chain or arm of the molecule)
constant: B1 constant with A165E
B10: equine IgG7 T286W mutant (antibody, part only; not given: variable domains, not shown: another chain or arm of the molecule)
constant: B1 constant with A165W
B11: equine IgG7 T286Y mutant (antibody, part only; not given: Variable domains, not shown: another chain or arm of the molecule)
constant: B1 constant with A165Y
B12: equine IgG7 T286R mutant (antibody, part only; not given: variable domains, not shown: another chain or arm of the molecule)
constant: B1 constant with A165R
B13: equine IgG7 T286Q mutant (antibody, part only; not given: variable domains, not shown: another chain or arm of the molecule)
constant: B1 constant with A165Q
B14: equine IgG7 T286H mutant (antibody, part only; not given: variable domains, not shown: another chain or arm of the molecule)
constant: B1 constant with A165H
B15: equine IgG7 T286F mutant (antibody, part only; not given: variable domains, not shown: another chain or arm of the molecule)
constant: B1 constant with A165F
B16: equine IgG7 T286I mutant (antibody, part only; not given: variable domains, not shown: another chain or arm of the molecule)
constant: B1 constant with A165I
B17: equine IgG7 T286M mutant (antibody, part only; not given: variable domains, not shown: another chain or arm of the molecule)
constant: B1 constant with A165M
B18: equine IgG7 T286V mutant (antibody, part only; not given: Variable domains, not shown: another chain or arm of the molecule)
constant: B1 constant with A165V

This experiment concerns the target equine FcRn (large alpha subunit p51) in complex with equine beta-2-microglobulin (equine) (UniProt F6XZ61). In words: SPR (Biacore), pH 6. On the technique in general: In SPR one partner is held on a chip, and binding of the other changes the refractive index at the surface.
UniProt F6XZ61, sequence (F6XZ61 entry or part of it, one chain of several): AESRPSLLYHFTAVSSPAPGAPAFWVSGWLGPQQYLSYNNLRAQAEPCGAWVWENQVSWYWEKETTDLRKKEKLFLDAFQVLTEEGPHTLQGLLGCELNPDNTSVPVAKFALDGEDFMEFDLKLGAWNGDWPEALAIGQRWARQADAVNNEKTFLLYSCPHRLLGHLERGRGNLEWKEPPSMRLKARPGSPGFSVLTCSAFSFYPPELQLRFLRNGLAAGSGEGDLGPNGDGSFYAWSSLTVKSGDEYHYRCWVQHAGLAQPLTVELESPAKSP
The Kd is the free concentration of one partner at which half of the binding sites on the other are occupied at equilibrium, for simple one-to-one binding. For B1, the Kd was found to be 110 nM.
Then B2, with 18.2 nM; and B3, with 84.4 nM.
As for B4, the Kd was determined as 20.6 nM.
Then B5, with 6.9 nM; and B6, with 47.5 nM.
Then B7, with 17.1 nM; and B8, with 14 nM; and B9, with 35.5 nM.
Then B10, with 15.4 nM; and B11, with 14.9 nM; and B12, with 7.8 nM.
In turn, B13 displayed a Kd of 7.7 nM.
B14 gave a Kd of 16 nM.
Then B15, with 7.8 nM; and B16, with 15.8 nM; and B17, with 19.3 nM.
B18: the Kd was 2.3 nM.
